# Like-named read-outs stand apart in the source and are kept apart here.
# T1: rat CEACAM1 D(1–4)-Fc fusion protein (rat, UniProt P16573 35-425)
# T1 sequence (looked up): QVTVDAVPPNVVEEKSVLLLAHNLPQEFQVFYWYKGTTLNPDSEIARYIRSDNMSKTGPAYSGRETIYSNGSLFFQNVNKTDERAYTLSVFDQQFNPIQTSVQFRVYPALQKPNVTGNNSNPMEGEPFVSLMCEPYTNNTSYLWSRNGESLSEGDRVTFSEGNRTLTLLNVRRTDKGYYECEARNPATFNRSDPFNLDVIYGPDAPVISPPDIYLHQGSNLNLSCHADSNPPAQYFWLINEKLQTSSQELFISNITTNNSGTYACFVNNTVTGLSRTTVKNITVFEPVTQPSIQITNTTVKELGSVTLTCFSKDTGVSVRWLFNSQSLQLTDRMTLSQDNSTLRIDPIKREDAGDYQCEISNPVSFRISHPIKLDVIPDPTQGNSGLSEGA
# Key:
# [1] = target: rat CEACAM1 D(2–4)-His ectodomain (rat); experiment: cross-linking
# [2] = target: the molecule itself; experiment: molecular electron tomography
# [3] = target: the molecule itself; experiment: molecular electron tomography; remark: listed apart in the source
# [4] = target: T1, rat CEACAM1 D(1–4)-Fc fusion protein; experiment: SPR
Molecule,fold lower percentage of cross-linked dimers than D(1–4) [1] [fold lower],KD monomer/A-dimer [2] [µM],KD monomer/C-dimer [2] [µM],KD monomer/A-dimer [3] [µM],KD monomer/C-dimer [3] [µM],Kd [4] [µM],koff [4] [s⁻¹],kon [4] [M⁻¹ s⁻¹]
rat CEACAM1 D(2–4)-His ectodomain (domain or fragment),4,–,–,–,–,–,–,–
"rat CEACAM1 D(1–4)-His ectodomain (domain or fragment, UniProt P16573 35-425, looked up, glycosylated (polydisperse, varying degrees of glycosylation; average molecular mass 81 kD)) QVTVDAVPPNVVEEKSVLLLAHNLPQEFQVFYWYKGTTLNPDSEIARYIRSDNMSKTGPAYSGRETIYSNGSLFFQNVNKTDERAYTLSVFDQQFNPIQTSVQFRVYPALQKPNVTGNNSNPMEGEPFVSLMCEPYTNNTSYLWSRNGESLSEGDRVTFSEGNRTLTLLNVRRTDKGYYECEARNPATFNRSDPFNLDVIYGPDAPVISPPDIYLHQGSNLNLSCHADSNPPAQYFWLINEKLQTSSQELFISNITTNNSGTYACFVNNTVTGLSRTTVKNITVFEPVTQPSIQITNTTVKELGSVTLTCFSKDTGVSVRWLFNSQSLQLTDRMTLSQDNSTLRIDPIKREDAGDYQCEISNPVSFRISHPIKLDVIPDPTQGNSGLSEGA",–,260,72.1,113,43.8,11.2,0.508 ± 0.0078,45300 ± 3600

# From PMC2779236 (The Journal of Cell Biology, 2009)
